Patent US8329178B2, “Antibodies against CXCR4 and methods of use thereof” (Dana-Farber Cancer Institute, Inc., dated 2012)

Target: CXCR2/CXCR4 chimera 4442 (human, UniProt P61073)
Experiment: FACS, 293T cells expressing CXCR4 variants

| Binder | binding to cells expressing the variant (+%) |
| --- | --- |
| 33-IgG1 (antibody, V domains shown) VH: QVTLKESGGGVVQPGRSLRLSCAASGFTFTNYGLHWVRQAPGKGLEWVAVISHDGTKKYYADSVKGRFTISRDSSENTLYLQMNSLRPEDSALYYCARDGGYCSGGRCYSYGMDVWGQGTTVTVSS VL: QSVLTQPPSASGTPGQRVTISCSGSRSNIGSNTVNWYQQLPGTAPKLLIYTNNQRPSGVPDRFSGSKSGTSASLAITGLQAEDEADYYCLSFDSSLTSYVFGTGTKVTVLG | 99.5% |
| 48-IgG1 (antibody, V domains shown) VH: QVQLVQSGGGVVLPGRSLRLSCVASGFTFRRYGMHWVRQAPGKGLEWVSLISYDGSKTFYGESVKGRFTISRDNSKNTLYLQMNSLRAEDTAVYYCARATVTTDGYYYMDVWGKGTTVTVSS VL: not shown | 91.9% |
